Source: article PMC6011931, “Substrate scope of a dehydrogenase from Sphingomonas species A1 and its potential application in the synthesis of rare sugars and sugar derivatives” (Microbial Biotechnology, 2018)

Columns and labels:
Assay in all cases: purified protein
Conditions in all cases: oxidation, 1 mM NAD+, 50 mM ammonium bicarbonate pH 7.9, 25 °C
purified protein [1] = substrate: O=C(O)[C@@H](O)[C@H](O)[C@H](O)CO; type: biochemical, Sphingomonas sp. A1
purified protein [2] = substrate: OCC(O)CO; type: biochemical, Sphingomonas sp. A1
purified protein [3] = substrate: O=C(O)[C@@H](O)[C@@H](O)[C@H](O)CO; type: biochemical, Sphingomonas sp. A1
purified protein [4] = substrate: O=C(O)[C@@H](O)[C@@H](O)[C@@H](O)[C@H](O)CO; type: biochemical, Sphingomonas sp. A1
purified protein [5] = substrate: O=C(O)[C@H](O)[C@@H](O)[C@H](O)CO; type: biochemical, Sphingomonas sp. A1
purified protein [6] = substrate: O=C(O)[C@H](O)[C@@H](O)[C@@H](O)[C@H](O)CO; type: biochemical, Sphingomonas sp. A1
purified protein [7] = substrate: O=C(O)C(=O)C[C@H](O)[C@H](O)CO; type: biochemical, Sphingomonas sp. A1
purified protein [8] = substrate: O=C(O)[C@H](O)[C@H](O)[C@H](O)CO; type: biochemical, Sphingomonas sp. A1
purified protein [9] = substrate: O=C(O)[C@@H](O)[C@H](O)[C@H](O)[C@H](O)CO
purified protein [10] = substrate: O=C(O)[C@@H](O)[C@@H](O)[C@H](O)[C@H](O)CO
purified protein [11] = substrate: O=C(O)[C@H](O)[C@H](O)[C@H](O)[C@H](O)CO
purified protein [12] = substrate: O=C(O)[C@H](O)[C@@H](O)[C@H](O)[C@H](O)CO

B1: SpsADH (Sphingomonas sp. A1) (protein)
chain: MFSDLKGKRILITGSTEGIGMATAIELARYGAVVGLNSHVDPADPALLLGKLREAGGDGAFFRADITKTAECQRLVSAFVERFDGIDVLINNAGGLAGRSNLENIDDAFYDRVMDLNGRSVLMMTKFAIPHLRASAKASGTTSAVISTGSIAAREGGGIGAGVYAASKAWLHDIHRNWVKEFTKDSIRFNIVAPGTVDTAFHADKSDELKTRIANSIPMGRFGTVQELAPAYVFFASHAASGYITGQILDVNGGQICP
notes: full length (258 residues), codon-optimised synthetic gene, N-terminal His6-tag kept (pET-28a), E. coli BL21(DE3), 29 500 Da; NAD+-dependent isoenzyme (printed locus SPH3227 may belong to the NADP+-dependent isoenzyme)
Km (purified protein [1]): 27 ± 3 mM | Vmax (purified protein [1]): 0.01 µmol/min/mg | kcat (purified protein [1]): 0.0048 ± 0.0001 s⁻¹ | kcat/Km (purified protein [1]): 0.18 ± 0.02 M⁻¹ s⁻¹ | Km (purified protein [2]): 100 ± 10 mM | Vmax (purified protein [2]): 0.011 µmol/min/mg | Km (purified protein [3]): 27 ± 2 mM | Vmax (purified protein [3]): 0.0086 µmol/min/mg | kcat (purified protein [3]): 0.0042 ± 0.0001 s⁻¹ | kcat/Km (purified protein [3]): 0.16 ± 0.02 M⁻¹ s⁻¹ | Km (purified protein [4]): 6 ± 1 mM | Vmax (purified protein [4]): 0.042 µmol/min/mg | kcat (purified protein [4]): 0.021 ± 0.001 s⁻¹ | kcat/Km (purified protein [4]): 3.4 ± 0.9 M⁻¹ s⁻¹ | Km (purified protein [5]): 24 ± 2 mM | Vmax (purified protein [5]): 0.066 µmol/min/mg | kcat (purified protein [5]): 0.032 ± 0.002 s⁻¹ | kcat/Km (purified protein [5]): 1.4 ± 0.2 M⁻¹ s⁻¹ | Km (purified protein [6]): 50 ± 5 mM | Vmax (purified protein [6]): 0.016 µmol/min/mg | kcat (purified protein [6]): 0.0079 ± 0.0003 s⁻¹ | kcat/Km (purified protein [6]): 0.16 ± 0.02 M⁻¹ s⁻¹ | Km (purified protein [7]): 13 ± 3 mM | Vmax (purified protein [7]): 2.8 µmol/min/mg | kcat (purified protein [7]): 1.4 ± 0.08 s⁻¹ | kcat/Km (purified protein [7]): 100 ± 30 M⁻¹ s⁻¹ | Km (purified protein [8]): 16 ± 1 mM | Vmax (purified protein [8]): 0.01 µmol/min/mg | kcat (purified protein [8]): 0.0052 ± 0.0001 s⁻¹ | kcat/Km (purified protein [8]): 0.33 ± 0.03 M⁻¹ s⁻¹ | Km (purified protein [9]): 24 ± 4 mM | Vmax (purified protein [9]): 0.39 µmol/min/mg | kcat (purified protein [9]): 0.19 s⁻¹ | kcat/Km (purified protein [9]): 8 M⁻¹ s⁻¹ | Km (purified protein [10]): 14 ± 1 mM | Vmax (purified protein [10]): 1.1 µmol/min/mg | kcat (purified protein [10]): 0.53 s⁻¹ | kcat/Km (purified protein [10]): 38 M⁻¹ s⁻¹ | Km (purified protein [11]): 16 ± 2 mM | Vmax (purified protein [11]): 0.36 µmol/min/mg | kcat (purified protein [11]): 0.18 s⁻¹ | kcat/Km (purified protein [11]): 11 M⁻¹ s⁻¹ | Km (purified protein [12]): 12 ± 1 mM | Vmax (purified protein [12]): 2 µmol/min/mg | kcat (purified protein [12]): 0.98 s⁻¹ | kcat/Km (purified protein [12]): 82 M⁻¹ s⁻¹
